Measurements as given in the DeepSol protein solubility set.

Test: soluble on expression in E. coli; label from the status in PepcDB or PDB records
For “MVFGENALVLKHLGSNTKIHFNAFDALAGWKQEGLPPVEVPAAAQWKFRSKPSQQVILDYDYTFTTPYCGSEVVEKDKETVEAKANPKGEATLQWENCEDQIDLAALSLKEPILFYDEVVLYEDELADNGVSLLTVKVRVMPSSWFLLLRFWLRVDGVLMRLRETRMHYRFGEDEAPTVLRENCWREATFQSLSAKGYPVDLAVWSDPSSISQRLPVIKHTTQKLKIPSKV”, the “soluble on expression in E. coli” value was “not soluble”. For “MGHHHHHHSHMQGLLRFEDQDSARGDQNIAMFYPTSTQMVYRRGLQAIPLSGDLWIHYINFLKETLDPGDPETNNTIRGTFEHAVLAAGTDFRSDRLWEMYIDWENEQGNLREVTAIYDRILGIPTQLCSHHFQRFKEHVQNNLPRDLLTGEQFIQLRRELASVNGHSGDDGPPGDDLPSGIEDITDPAKLITEIENMRHRIIEIHQEMFNYNEHEVSKRWTFEEGIKRPYFHVKPLEKAQLKKLERILRI”, the “soluble on expression in E. coli” value was “soluble”. With “HGSSTVDELTAAFTGGAATGEGGLTLTAPEIAENGNTVPIEVKAPGAVAIMLLAAGNPEPAVATFNFGPAAADQRAATRIRLAQTQDVIALAKMADGSVVKAQTTVKVTIGGCGG” the “soluble on expression in E. coli” value was “soluble”. In the case of “MSLGAYLSEPLTTKDSSDESNEFLASGSSSMQGWRISQEDAHNCILNFDDQCSFFAVYDGHGGAEVAQYCSLHLPTFLKTVEAYGRKEFEKALKEAFLGFDATLLQEKVIEELKVLSGDSAGSDAEPGKDSGCTAVVALLHGKDLYVANAGDSRCVVCRNGKALEMSFDHKPEDTVEYQRIEKAGGRVTLDGRVNGGLNLSRAIGDHGYKMNKSLPAEEQMISALPDIEKITVGPEDEFMVLACDGIWNFMTSEQVVQFVQERINKPGMKLSKICEELFDHCLAPHTRGDGTGCDNMTAIIVQFKEGHHHHHH”, the “soluble on expression in E. coli” value is reported as “soluble”. For “FNLKTPGREDDASSESGDNAEAERAPAFIRALGGAANLEVVDACTTRLRLRLVDRNKASDAQLKALGAMAVVRPGKAGSLQVVVGPQADSIADEIRRALPFDTQPGEAVPPLGSPHTAEEVVAMQATVDAAEAQAWLGALGGAGNLREVRDVALTRLRVSVADERKLATEQLRRLGGQGVSSLAGGICHILVGPRAAALSQALQPLLR”, the “soluble on expression in E. coli” value was “not soluble”. In the case of “MGHHHHHHSHMKRMAENELSRSVNEFLSKLQDDLKEAMNTMMCSRCQGKHRRFEMDREPKSARYCAECNRLHPAEEGDFWAESSMLGLKITYFALMDGKVYDITEWAGCQRVGISPDTHRVPYHISFGSRIPGTRGRQRATPDAPPADLQDFLSRIFQVPPGQMPMGTSLQLLSLPLEPLQPLSPTAQYPREKPNLSGGRK”, the “soluble on expression in E. coli” value is reported as “not soluble”. For “MNPLKAGDIAPKFSLPDQDGEQVNLTDFQGQRVLVYFYPKAMTPGCTVQACGLRDNMDELKKAGVDVLGISTDKPEKLSRFAEKELLNFTLLSDENHQVCEQFGVWGEKSFMGKTYDGIHRISFLIDADGKIEHVFNDFKTSNHHDVVLNWLKENA”, the “soluble on expression in E. coli” value was “not soluble”. For “MGHHHHHHSHAFDLTVPTTNQFLLQYLRRQGVCVRTENLAKYVAELSLLEADPFLKYLPSLIAAAAFCLANYTVNKHFWPETLAAFTGYSLSEIVPCLSELHKAYLDIPHRPQQAIREKYKASKYLCVSLMEPPAVLLLQ”, the “soluble on expression in E. coli” value was “not soluble”. In the case of “MAVCSLVAKITYAEERQQNNYPIILVNGFAGWGREEMLGVKYWGGVHDIQEDLKRNGYTVHTAAVGPVSSNWDRACELYAQINGGTVDYGAAHAEKHGHKRFGRTYSGFAPNWSETNKIHLVGHSMGGQTIRTLVQLLKEGSYEEKNYVKNHPNTKISPLFEGEKSYVHSVTTLATPHNGTTLADGSLLLPFVKDLLITAASFGGNDNLSLYDFKLDQWGLKKNTGESFFQYSNRILNSSIWKNTKDISQWDLSTDGAKELNNWVKTQLNVYYLSYSGHASQAAPITGLHLPHITMNKVLMGNAFFLGSYARYEENRPLIDTTWWQNDGVVNTSSMIAPSSNATVNNNESLQIGKWNHIETKANWDHLDMVGLSVSDTLGFSSIQEFYRAIAEKLSRLPK”, the “soluble on expression in E. coli” value is reported as “not soluble”. In the case of “MSLTVSFVRIDDRMIHGQTVTRWAKEYPCDGLIAVNDAAAKNKVLIQAYKGASDKKTFVWSKEAFAAKSQKVSDSDSRYFLITKNPVDMKEILVDQGFVPGEVKEIIVGPANDRPGAVKLGNNQSITQEEADAIEAIEKAGYKVKFQLLPDVSIGYWSDFKGKFGEGHHHHHH”, the “soluble on expression in E. coli” value is reported as “soluble”. In the case of “MSLTNFVGSVLEATKEAIRALNPQNSTIYESLMVGAGGDVSLKADLMCEEILSARLRHFGHIHSEESGLIEGESQDIIYLDPLDGSTNLSSLIPYYGTSVALCDPEGRTKAAAVINFCSGETFIKTDAFALHGSIWQPIDTFVPIRPLEHASKIGIFEGSHRNAPWVLGLHQKGLKFRSPGAIALSMAYAHNVSFVLFDGEIREYDTKAGLFLCSDLHIHHDERALLISRDPIIFENLLELISQKGEGHHHHHH”, the “soluble on expression in E. coli” value is reported as “soluble”. With “MSRSQVTGKEFVLRCVFNDVSNMNDNDMRFGTVEEYFNVPWIFQIQRNNGNLGIYLRCTNLKDQEMWSIFSELELKLVSVYSDTRDQKCKIDMCFGHDSGKFYSSYGWSEFISWNELETSFMEAGSITVEARVLINKSIGFYTPKLMDFDEKMMEYSDIVVLVNGQRFYLLKKFLAFHSTFFESLFLGGFYEAKLAEVPLYDIDVDDFQKFLEVLYGFPVINVIVPINKLTLQQSEMLNACAQYAQTGSQKLTREANYVITEVRLF” the “soluble on expression in E. coli” value was “not soluble”. For “MAVPPAYADLGKSAKDIFSKGYGFGTVKLDLKTKSQSGVEFTTGGSSNTDTGKAAGNLETKYKVKELGLSLNQKWNTDNVLTTEVTLEDQLAKGLKLGLDTSFVPNTGKKSAKLKTGYKREYMNVGCDLDFDLAGPTVHAAAVLGYEGWLAGYQMAFDTAKSKLAQNNFALGYKAGDFQLHTNVNDGTEFGGSIYQKVNGQLETAVNLAWTAGSNNTRFGIAAKYQLDKDSSVSAKVNNASLVGVGYTQSLRPGVKLTLSALIDAKNFNAGGHKVGMGFELEV”, the “soluble on expression in E. coli” value was “not soluble”. In the case of “MAHHHHHHMAAVTQQGNDTRKLRCNVYVASLPLDFDDDQLFDLFSPYGRISSARIMRSKGARQSRGYGFVLFRHASSAEKAIDSLVGYVIGGSRIQVRLAHPEASVAYSGQRGSRSGNSTPGALPEKTLPAASGVITPPPPSSAIISHPNDSGMMVQTYPITTMYPTMYPSVVPQIIAQPQAPVPAAMQQVVFLPQYAQQSNQSTPPTFYMMVPDAMQAVPPTLS”, the “soluble on expression in E. coli” value is reported as “soluble”. For “MRPSSRSAGRRTSMRLTTRDFDRTGRPLRFTELGFGSSPLGNLYRAISEEEAQALLERAWAGGIRYFDTAPLYGYGLAEERLGRFLAGHPRSDYVLSTKVGRLLRPVEPGEARDGLGKFFEVPERKERFDYGYDGVMRSLEASLDRLGLDRVDVLYAHDLDLFTHGSQEALEARLAEFMAGGYRALVELRDQGVISAFGAGVNEWQPCQWLAERGEFDLFLLAGRYTLLEQEALESFLPLAEERGIGIVIGGPYNSGVLATGPKPGSFYDYRLAPQAVLDRVAQIHTICERWGVRMFEAAFQFPLRHPAVLSVIPGPQSVGEVMENRIAADAELPPGLWEDLKVAGLLRPDAPV”, the “soluble on expression in E. coli” value was “not soluble”. In the case of “MPHPCLSCGACCAYFRVSFHWSEADPALGGNVPIELTEPLRIHERVMHGTSQSHPRCIALDAEIGYRSRCTIHERRPSVCAAVPASLEFGTRSQQCDTSRRAHGLHLLTEADWAGVTNTERNPLPNELEHHHHHH”, the “soluble on expression in E. coli” value is reported as “soluble”. In the case of “MWRLRMSLGISEAFDLRPDYIISVIKDTRAKLVGFQFPEGLKRKGPELAKKVEKATGAEIIISGDPCFGACDLDRTLLDHVDILFHFGHAELEDIRLSNKVYFIETRSSVDVLHVIEKAVPELKGQKIGLITTVQHVHKLPDVCGVLERMGKTCVIGRGDSRIAYAGQVLGCNFSAARDEDCDEYLYIGSGDFHPLGVALSTKKRVLAADPFSGEVREVDPSRILRQRSAVIAKSLDAQVFGIIVSSKNGQKRMELASSLKELAKKHGKESHLILIDLVTPDQLLQFKVDAFVNTACPRLAIDEVGRFPAPMLTPQEFEIVLGEREWEKLVLDEITEEPVLEHHHHHH”, the “soluble on expression in E. coli” value is reported as “not soluble”. For “SKIYDNKNQLIADLGSERRVNAQANDIPTDLVKAIVSIEDHRFFDHRGIDTIRILGAFLRNLQSNSLQGGSTLTQQLIKLTYFSTSTSDQTISRKAQEAWLAIQLEQKATKQEILTYYINKVYMSNGNYGMQTAAQNYYGKDLNNLSLPQLALLAGMPQAPNQYDPYSHP”, the “soluble on expression in E. coli” value was “not soluble”.
